Measured values: the supplement of paper PMC10724198
± gives the standard deviation of the averaged measurements.

Assays:
Experiment in all cases: protein stability index of tFT-peptide fusion (C-terminal peptide) (PSI (0-1 scale)); higher = more stable (slower turnover)
[1] = system: Saccharomyces cerevisiae; settings: temperature: 30 C
Procedure: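 MPS profiling in S. cerevisiae of the yeast C-terminome library: the last 12 aa of each annotated ORF are fused to the C-terminus of a sfGFP-mCherry timer, after a GGGS linker. Cells are FACS-sorted into 8 mCherry/sfGFP bins and deep-sequenced. PSI runs from 0 (unstable) to 1 (stable); wild type and das1Δ backgrounds, two technical replicates each.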

[2] = system: Saccharomyces cerevisiae
Procedure: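 MPS profiling in S. cerevisiae of the tFT-X12 degron library: putative degron peptides plus stable controls, 12 aa, fused to the C-terminus of a sfGFP-mCherry timer. Cells are FACS-sorted into 8 mCherry/sfGFP bins and deep-sequenced. PSI runs from 0 (unstable) to 1 (stable). Backgrounds are wild type, das1Δ and doa10Δ at 30 °C, and wild type, das1Δ, cdc34-1 and cdc53-1 at 37 °C; 2-3 technical replicates each.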

[3] = system: Saccharomyces cerevisiae; settings: genetic background: wild type; temperature: 30 C
[4] = genetic background: das1 deletion
[5] = genetic background: cdc34-1, temperature: 37 C
[6] = genetic background: cdc53-1, temperature: 37 C
[7] = genetic background: das1 deletion, temperature: 30 C
[8] = genetic background: das1 deletion, temperature: 37 C
[9] = genetic background: doa10 deletion, temperature: 30 C
[10] = genetic background: wild type, temperature: 30 C
[11] = genetic background: wild type, temperature: 37 C

| Sequence | protein stability index [1, 4] | protein stability index ([1]; genetic background: wild type) | protein stability index [2, 5] | protein stability index [2, 6] | protein stability index [2, 7] | protein stability index [2, 8] | protein stability index [2, 9] | protein stability index [2, 10] | protein stability index [2, 11] | protein stability index [3] |
| --- | --- | --- | --- | --- | --- | --- | --- | --- | --- | --- |
| LWNLSDNCKNTV [MMS1 C-terminal 12 aa] | 0.707 ± 0.02 | 0.7014 ± 0.0061 | – | – | – | – | – | – | – | – |
| DNFINSVKLNFR [SEC10 C-terminal 12 aa] | 0.6945 ± 0.0052 | 0.734 ± 0.022 | – | – | – | – | – | – | – | – |
| ITLESGSYKFQD [SRP40 C-terminal 12 aa] | 0.695 ± 0.025 | 0.639 ± 0.0026 | – | – | – | – | – | – | – | – |
| PGGGGGSPLIFL [YHR165W-A C-terminal 12 aa] | 0.7299 ± 0.0012 | 0.728 ± 0.02 | – | – | – | – | – | – | – | – |
| GEDPYADLFRDF [TPK1 C-terminal 12 aa] | 0.731 ± 0.0078 | 0.6846 ± 0.0053 | – | – | – | – | – | – | – | – |
| SLQKIDATYIRG [SDS22 C-terminal 12 aa] | 0.702 ± 0.017 | 0.687 ± 0.017 | – | – | – | – | – | – | – | – |
| TWGGGRVSLGVG | – | – | 0.313 ± 0.029 | 0.3966 ± 0.0028 | 0.326 ± 0.011 | 0.405 ± 0.018 | 0.3442 ± 0.0015 | 0.359 ± 0.044 | 0.401 ± 0.022 | 0.328 ± 0.016 |
| VLLRSRLLRRLS | – | – | 0.588 ± 0.055 | 0.6547 ± 0.0063 | 0.67 ± 0.048 | 0.72 ± 0.033 | 0.137 ± 0.013 | 0.137 ± 0.038 | 0.235 ± 0.02 | 0.211 ± 0.024 |
| ARGVAAAFVSGF | – | – | 0.696 ± 0.043 | 0.7725 ± 0.0057 | 0.657 ± 0.03 | 0.746 ± 0.016 | 0.661 ± 0.023 | 0.653 ± 0.0078 | 0.725 ± 0.03 | 0.595 ± 0.23 |
| RLLSIFKILHVG | – | – | 0.526 ± 0.0063 | 0.6593 ± 0.0037 | 0.638 ± 0.013 | 0.705 ± 0.014 | 0.0881 ± 0.028 | 0.0968 ± 0.0051 | 0.1507 ± 0.00028 | 0.188 ± 0.036 |
| LVLSFVMLVSGH | – | – | 0.183 ± 0.014 | 0.313 ± 0.02 | 0.202 ± 0.013 | 0.384 ± 0.031 | 0.149 ± 0.0053 | 0.185 ± 0.024 | 0.343 ± 0.024 | 0.289 ± 0.012 |
| FSSFLGFIRFFV | – | – | 0.661 ± 0.088 | 0.751 ± 0.0091 | 0.655 ± 0.022 | 0.751 ± 0.016 | 0.286 ± 0.018 | 0.315 ± 0.022 | 0.59 ± 0.04 | 0.426 ± 0.052 |
| PISNMSIILLFL | – | – | 0.495 ± 0.072 | 0.595 ± 0.043 | 0.439 ± 0.028 | 0.593 ± 0.016 | 0.378 ± 0.018 | 0.391 ± 0.015 | 0.556 ± 0.027 | 0.48 ± 0.04 |
| FALFCFVIFMSR | – | – | 0.22 ± 0.05 | 0.373 ± 0.1 | 0.245 ± 0.081 | 0.398 ± 0.034 | 0.277 ± 0.028 | 0.227 ± 0.068 | 0.381 ± 0.063 | 0.363 ± 0.06 |
| VLRCIWLCFLSV | – | – | 0.487 ± 0.025 | 0.5129 ± 0.0034 | 0.439 ± 0.034 | 0.607 ± 0.032 | 0.448 ± 0.039 | 0.4 ± 0.013 | 0.561 ± 0.036 | 0.465 ± 0.043 |
| ARRGHNCAAVFL | – | – | 0.6953 ± 0.0068 | 0.7426 ± 0.0071 | 0.666 ± 0.026 | 0.7447 ± 0.0047 | 0.65 ± 0.022 | 0.663 ± 0.024 | 0.718 ± 0.0074 | 0.643 ± 0.3 |
| VGDFFVLVGFVA | – | – | 0.493 ± 0.0097 | 0.538 ± 0.011 | 0.386 ± 0.028 | 0.547 ± 0.0057 | 0.336 ± 0.0095 | 0.382 ± 0.022 | 0.5219 ± 0.0043 | 0.492 ± 0.053 |

| Sequence | protein stability index [1, 4] | protein stability index ([1]; genetic background: wild type) | protein stability index [2, 5] | protein stability index [2, 6] | protein stability index [2, 7] | protein stability index [2, 8] | protein stability index [2, 9] | protein stability index [2, 10] | protein stability index [2, 11] | protein stability index [3] |
| --- | --- | --- | --- | --- | --- | --- | --- | --- | --- | --- |
| VRFLLSLCCALL | – | – | 0.588 ± 0.03 | 0.671 ± 0.018 | 0.548 ± 0.033 | 0.624 ± 0.042 | 0.5436 ± 0.0034 | 0.518 ± 0.021 | 0.596 ± 0.032 | 0.4914 ± 0.0025 |
| KLKDLTRIKIFR | – | – | 0.681 ± 0.0063 | 0.714 ± 0.033 | 0.666 ± 0.031 | 0.6989 ± 0.0069 | 0.6428 ± 0.002 | 0.6737 ± 0.0056 | 0.701 ± 0.011 | 0.722 ± 0.019 |
| VLRLVLFVLISV | – | – | 0.311 ± 0.065 | 0.348 ± 0.019 | 0.277 ± 0.03 | 0.387 ± 0.016 | 0.2853 ± 0.0015 | 0.268 ± 0.015 | 0.352 ± 0.016 | 0.337 ± 0.0069 |
| VYDVSVGVAVVG | – | – | 0.44 ± 0.018 | 0.464 ± 0.041 | 0.34 ± 0.037 | 0.5196 ± 0.0031 | 0.291 ± 0.017 | 0.346 ± 0.025 | 0.48822 ± 0.00017 | 0.4567 ± 0.002 |
| ESRDRRVGIANW | – | – | 0.69 ± 0.036 | 0.743 ± 0.005 | 0.647 ± 0.0092 | 0.77 ± 0.0086 | 0.648 ± 0.014 | 0.647 ± 0.011 | 0.713 ± 0.014 | 0.7252 ± 0.0026 |
| KKKKQKKNNNKR | – | – | 0.699 ± 0.094 | 0.687 ± 0.15 | 0.676 ± 0.083 | 0.755 ± 0.034 | 0.668 ± 0.011 | 0.6 ± 0.027 | 0.698 ± 0.079 | 0.536 ± 0.074 |
| CRRQLKVLKSMS | – | – | 0.581 ± 0.072 | 0.697 ± 0.025 | 0.653 ± 0.023 | 0.6892 ± 0.0061 | 0.148 ± 0.021 | 0.151 ± 0.03 | 0.31 ± 0.013 | 0.242 ± 0.039 |
| FWILLRVLIFVL | – | – | 0.176 ± 0.027 | 0.172 ± 0.0087 | 0.18 ± 0.033 | 0.321 ± 0.0095 | 0.182 ± 0.0047 | 0.175 ± 0.028 | 0.246 ± 0.03 | 0.266 ± 0.011 |
| VLILFFLVVFYV | – | – | 0.217 ± 0.015 | 0.294 ± 0.0088 | 0.267 ± 0.033 | 0.347 ± 0.018 | 0.2543 ± 0.0024 | 0.237 ± 0.021 | 0.3358 ± 0.0033 | 0.262 ± 0.037 |
| ILRIYIPRWRRQ | – | – | 0.648 ± 0.069 | 0.6821 ± 0.0054 | 0.62 ± 0.02 | 0.7292 ± 0.0032 | 0.119 ± 0.032 | 0.132 ± 0.035 | 0.332 ± 0.0091 | 0.219 ± 0.087 |
| WVRIIIKLRASL | – | – | 0.444 ± 0.011 | 0.4476 ± 0.0035 | 0.34 ± 0.021 | 0.41 ± 0.0083 | 0.274 ± 0.0048 | 0.253 ± 0.011 | 0.345 ± 0.034 | 0.315 ± 0.041 |
| FCCFFVHMSFFL | – | – | 0.26 ± 0.0087 | 0.424 ± 0.024 | 0.298 ± 0.026 | 0.45 ± 0.0054 | 0.2646 ± 0.00099 | 0.282 ± 0.012 | 0.427 ± 0.025 | 0.483 ± 0.12 |
| SILVSIFILAMQ | – | – | 0.205 ± 0.029 | 0.311 ± 0.0043 | 0.229 ± 0.043 | 0.412 ± 0.0063 | 0.199 ± 0.008 | 0.219 ± 0.048 | 0.355 ± 0.015 | 0.189 ± 0.019 |
| MFFSWVLSISLT | – | – | 0.0242 ± 0.0074 | 0.058 ± 0.011 | 0.0335 ± 0.0093 | 0.0704 ± 0.0084 | 0.024 ± 0.0024 | 0.0234 ± 0.0076 | 0.0577 ± 0.011 | 0.0454 ± 0.021 |
| TKKGQTRPSRTD | – | – | 0.634 ± 0.0078 | 0.6989 ± 0.0024 | 0.642 ± 0.034 | 0.705 ± 0.017 | 0.6444 ± 0.0049 | 0.687 ± 0.029 | 0.696 ± 0.017 | 0.575 ± 0.21 |
| FCSPFFFFLFRL | – | – | 0.283 ± 0.072 | 0.241 ± 0.032 | 0.357 ± 0.028 | 0.4269 ± 0.003 | 0.469 ± 0.0056 | 0.315 ± 0.031 | 0.361 ± 0.03 | 0.4182 ± 0.00048 |
